{
  "source": "patent US6911526B2",
  "about": "“Compounds that inhibit the interaction between signal-transducing proteins and the GLGF (PDZ/DHR) domain and uses thereof” (The Trustees of Columbia University in the City of New York, priority 1996, dated 2005)",
  "key": {"[1]": {"tested_on": "Fas/FAP-1 binding", "experiment": "In vitro inhibition assay of Fas/FAP-1 binding (GST-Fas and in vitro-translated 35S-FAP-1)", "conditions": "for binding of in vitro-translated FAP-1 to GST-Fas: FIG. 3A, C-terminal 15 amino acids at 1-1000 μM, human PAMP 1 mM as negative control", "protocol": "HFAP-10 cDNA (Sato, et al. 1995) subcloned into the Bluescript vector pSK-II (Stratagene) was in vitro-translated from an internal methionine codon in the presence of ^35S-L-methionine using a coupled in vitro transcription/translation system (Promega, TNT lysate) and T7 RNA polymerase. The resulting ^35S-labeled protein was incubated with GST-Fas fusion proteins that had been immobilized on […] affinity beads (Pharmacia) in a buffer containing 150 mM NaCl, 50 mM Tris [pH 8.0], 5 mM DTT, 2 mM EDTA, 0.1% NP-40, 1 mM PMSF, 50 μg/ml leupeptin, 1 mM Benzamidine, and 7 μg/ml pepstatin for 16 hours at 4° C. After washing vigorously 4 times in the same buffer, associated proteins were recovered with the glutathione-Sepharose beads by centrifugation, eluted into boiling Laemmli buffer, and analyzed by SDS-PAGE and fluorography.\nIn vitro-translated [^35S]HFAP-1 was purified with a NAP-5 column (Pharmacia) and incubated with 3 μM of GST-fusion proteins for 16 hours at 4° C. After washing 4 times in the binding buffer, radioactivity incorporation was determined in a b counter. The percentage of binding inhibition was calculated as follows: percent inhibition=[radioactivity incorporation using GST-Fas (191-335) with peptides−radioactivity incorporation using GST-Fas (191-320) with peptides]/[radioactivity incorporation using GST-Fas (191-335) without peptides−radioactivity incorporation using GST-Fas (191-320) without peptides]. n=3."}, "[2]": {"tested_on": "Fas/FAP-1 binding", "experiment": "Inhibition of binding of GST-FAP-1 to native Fas extracted from Jurkat T-cells (Western analysis)", "conditions": "GST-FAP-1, Jurkat T-cell extracts; FIGS. 4C and 4D", "protocol": "GST-fusion proteins with or without FAP-1 were incubated with cell extracts from Jurkat T-cells expressing Fas. The bound Fas was detected by Western analysis using anti-Fas monoclonal antibody (F22120, Transduction Laboratories). The tripeptides, Ac-SLV and Ac-SLY were used for the inhibition assay of Pas/FAP-1 binding."}, "[3]": {"tested_on": "DLD-1 human colon cancer cells", "experiment": "Microinjection of synthetic tripeptides into DLD-1 cells, Fas-induced apoptosis", "format": "cell-based", "conditions": "tripeptide 100 mM microinjected into cytoplasm, Fas monoclonal antibody CH11 500 ng/ml, 16-20 hours postinjection, condensed chromatin (Hoechst 33342)", "protocol": "DLD-1 human colon cancer cells were cultured in RPMI 1640 medium containing 10% FCS. For microinjection, cells were plated on CELLocate (Eppendorf) at 1×10^5 cells/2 ml in a 35 mm plastic culture dish and grown for 1 day. Just before microinjection, Fas monoclonal antibodies CH11 (MBL International) was added at the concentration of 500 ng/ml. All microinjection experiments were performed using an automatic microinjection system (Eppendorf transjector 5246, micro-manipulator 5171 and Femtotips) (Pantel, et al. 1995). Synthetic tripeptides were suspended in 0.1% (w/v) FITC-Dextran (Sigma)/K-PBS at the concentration of 100 mM. The samples were microinjected into the cytoplasmic region of DLD-1 cells. Sixteen to 20 hours postinjection, the cells were washed with PBS and stained with 10 μg/ml Hoechst 33342 in PBS. After incubation at 37° C. for 30 minutes, the cells were photographed and the cells showing condensed chromatin were counted as apoptotic.\nFor each experiment, 25-100 cells were microinjected. Apoptosis of microinjected cells was determined by assessing morphological changes of chromatin using phase contrast and fluorescence microscopy (Wang, et al., 1995; McGahon, et al., 1995). The data are means +/− S.D. for two or three independent determinations."}, "[4]": {"target": "T1, LexA-SLY fusion protein (UniProt P0A7C2 1-202)", "T1 construct": "Yeast two-hybrid bait; also called pBTM116 (LexA)-SLY", "T1 sequence": "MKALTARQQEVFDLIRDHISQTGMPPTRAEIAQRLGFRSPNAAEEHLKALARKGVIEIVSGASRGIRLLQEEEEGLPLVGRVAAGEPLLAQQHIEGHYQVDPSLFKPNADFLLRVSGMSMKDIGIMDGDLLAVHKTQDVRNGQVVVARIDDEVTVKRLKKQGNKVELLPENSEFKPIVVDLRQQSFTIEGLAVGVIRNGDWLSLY", "experiment": "yeast two-hybrid (growth on histidine-deficient medium)"}, "[5]": {"target": "T2, LexA-PLV fusion protein (UniProt P0A7C2 1-202)", "T2 construct": "Yeast two-hybrid bait; also called pBTM116 (LexA)-PLV; -PLy", "T2 sequence": "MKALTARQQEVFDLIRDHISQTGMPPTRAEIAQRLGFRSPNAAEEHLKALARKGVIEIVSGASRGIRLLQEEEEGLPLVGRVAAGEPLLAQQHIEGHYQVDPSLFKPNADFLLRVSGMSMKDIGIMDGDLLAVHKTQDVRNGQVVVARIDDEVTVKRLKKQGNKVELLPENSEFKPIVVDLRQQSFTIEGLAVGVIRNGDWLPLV", "experiment": "yeast two-hybrid (growth on histidine-deficient medium)"}, "[6]": {"target": "T3, LexA-SLA fusion protein (UniProt P0A7C2 1-202)", "T3 construct": "Yeast two-hybrid bait; also called pBTM116 (LexA)-SLA", "T3 sequence": "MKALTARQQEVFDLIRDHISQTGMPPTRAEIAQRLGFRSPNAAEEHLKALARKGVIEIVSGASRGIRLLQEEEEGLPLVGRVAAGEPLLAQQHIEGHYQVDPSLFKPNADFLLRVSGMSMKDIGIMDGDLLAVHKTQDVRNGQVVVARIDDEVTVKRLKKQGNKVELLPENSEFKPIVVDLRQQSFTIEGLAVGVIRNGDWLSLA", "experiment": "yeast two-hybrid (growth on histidine-deficient medium)"}, "[7]": {"tested_on": "FAP-1", "experiment": "Interaction of C-terminal tripeptides fused to LexA with FAP-1 in yeast two-hybrid system", "format": "cell-based", "conditions": "LexA fusion co-transformed into yeast L40 with pVP16-FAP-1; FIG. 4A", "text": "The bait plasmids, pBTM116 (LexA)-SLV, -PLV, -SLY, and -SLA, were constructed and transformed into L40-strain with pVP16-FAP-1 or -ras. Six independent clones from each transformants were picked up for the analysis of growth on histidine-deficient medium. GST-Fas, -SLV, and PLV were purified with GST-Sepharose 4B affinity beads (Pharmacia). The methods for in vitro binding are described above."}},
  "note": "“Also recorded” adds a separate entry of the source. Where no end group is shown, it is not given here.",
  "data": [
    {"molecule": "human PAMP peptide: N-terminal 20 amino acids of proadrenomedullin, negative control (ARLDVASEFRKKWNKWALSR) [reference compound]", "values": [
      {"measurement": "binding of in vitro-translated FAP-1 to GST-Fas", "setting": "[1]", "value": "no effect"}
    ]},
    {"molecule": "Ac-SLY: acetylated synthetic tripeptide SLY, used as non-binding control (Ac-Ser-Leu-Tyr)", "values": [
      {"measurement": "binding activity of FAP-1 to Fas proteins extracted from Jurkat T-cells", "setting": "[2]", "value": "not"},
      {"measurement": "induction of apoptosis in microinjected DLD-1 cells", "setting": "[3]", "value": "did not; also recorded: only one cell of the area appeared apoptotic"}
    ]},
    {"molecule": "DSENSNFRNEIQSLV (Ac-DSENSNFRNEIQSLV) [synthetic 15 amino acids of Fas, synthetic peptide of the C-terminal 15 amino acids of Fas]", "values": [
      {"measurement": "binding of in vitro-translated FAP-1 to GST-Fas", "setting": "[1]", "value": "dramatically reduced and dependent on the concentration"}
    ]},
    {"molecule": "Ac-SLV-COOH (Ac-Ser-Leu-Val-OH) [acetylated tripeptide of the three C-terminal amino acids of Fas]", "values": [
      {"measurement": "binding activity of FAP-1 to Fas proteins extracted from Jurkat T-cells", "setting": "[2]", "value": "abolished in a dose-dependent manner"},
      {"measurement": "induction of apoptosis in microinjected DLD-1 cells", "setting": "[3]", "value": "dramatically induced apoptosis"},
      {"measurement": "inhibitory effect on the binding of FAP-1 to Fas, truncated acetylated peptides", "setting": "[1]; FIG. 3B, acetylated synthetic peptides", "value": "same level of inhibitory effect"}
    ]},
    {"molecule": "FAP-1 expressed from plasmid pVP16-31 (VP16 fusion, yeast two-hybrid prey) (other, also called pVP16-FAP-1; Fas-associated phosphatase-1) KMNFKTFSSSPPKPGDIFEVELAKNDNSLGISVTGGVNTSVRHGGIYVKAVIPQGAAESDGRIHKGDRVLAVNGVSLEGATHKQAVETLRNTGQVVHLLLEKGQSPTSKEHVPVTPQCTLS", "values": [
      {"measurement": "binding result", "setting": "[4]", "value": "no binding"},
      {"measurement": "binding result", "setting": "[5]", "value": "no binding"},
      {"measurement": "binding result", "setting": "[6]", "value": "no binding"}
    ]},
    {"molecule": "LexA-SLV: LexA DNA binding domain fused to tripeptide SLV (yeast bait) (protein) MKALTARQQEVFDLIRDHISQTGMPPTRAEIAQRLGFRSPNAAEEHLKALARKGVIEIVSGASRGIRLLQEEEEGLPLVGRVAAGEPLLAQQHIEGHYQVDPSLFKPNADFLLRVSGMSMKDIGIMDGDLLAVHKTQDVRNGQVVVARIDDEVTVKRLKKQGNKVELLPENSEFKPIVVDLRQQSFTIEGLAVGVIRNGDWLSLV", "values": [
      {"measurement": "association with FAP-1 in yeast (growth on histidine-deficient medium)", "setting": "[7]", "value": "associated with FAP-1"}
    ]},
    {"molecule": "LexA-SLA: LexA DNA binding domain fused to tripeptide SLA (yeast bait) (protein) MKALTARQQEVFDLIRDHISQTGMPPTRAEIAQRLGFRSPNAAEEHLKALARKGVIEIVSGASRGIRLLQEEEEGLPLVGRVAAGEPLLAQQHIEGHYQVDPSLFKPNADFLLRVSGMSMKDIGIMDGDLLAVHKTQDVRNGQVVVARIDDEVTVKRLKKQGNKVELLPENSEFKPIVVDLRQQSFTIEGLAVGVIRNGDWLSLA", "values": [
      {"measurement": "association with FAP-1 in yeast (growth on histidine-deficient medium)", "setting": "[7]", "value": "did not"}
    ]},
    {"molecule": "LexA-SLY: LexA DNA binding domain fused to tripeptide SLY (yeast bait) (protein) MKALTARQQEVFDLIRDHISQTGMPPTRAEIAQRLGFRSPNAAEEHLKALARKGVIEIVSGASRGIRLLQEEEEGLPLVGRVAAGEPLLAQQHIEGHYQVDPSLFKPNADFLLRVSGMSMKDIGIMDGDLLAVHKTQDVRNGQVVVARIDDEVTVKRLKKQGNKVELLPENSEFKPIVVDLRQQSFTIEGLAVGVIRNGDWLSLY", "values": [
      {"measurement": "association with FAP-1 in yeast (growth on histidine-deficient medium)", "setting": "[7]", "value": "did not"}
    ]},
    {"molecule": "LexA-PLY: LexA DNA binding domain fused to tripeptide PLY (yeast bait) (protein) MKALTARQQEVFDLIRDHISQTGMPPTRAEIAQRLGFRSPNAAEEHLKALARKGVIEIVSGASRGIRLLQEEEEGLPLVGRVAAGEPLLAQQHIEGHYQVDPSLFKPNADFLLRVSGMSMKDIGIMDGDLLAVHKTQDVRNGQVVVARIDDEVTVKRLKKQGNKVELLPENSEFKPIVVDLRQQSFTIEGLAVGVIRNGDWLPLY", "values": [
      {"measurement": "association with FAP-1 in yeast (growth on histidine-deficient medium)", "setting": "[7]", "value": "did not"}
    ]},
    {"molecule": "LexA-PLV: LexA DNA binding domain fused to tripeptide PLV (yeast bait) (protein) MKALTARQQEVFDLIRDHISQTGMPPTRAEIAQRLGFRSPNAAEEHLKALARKGVIEIVSGASRGIRLLQEEEEGLPLVGRVAAGEPLLAQQHIEGHYQVDPSLFKPNADFLLRVSGMSMKDIGIMDGDLLAVHKTQDVRNGQVVVARIDDEVTVKRLKKQGNKVELLPENSEFKPIVVDLRQQSFTIEGLAVGVIRNGDWLPLV", "values": [
      {"measurement": "association with FAP-1 in yeast (growth on histidine-deficient medium)", "setting": "[7]", "value": "did not"}
    ]}
  ]
}
